In patent publication US20040072753A1 (published 2004):
Where no end group is shown, it is not given here.

T1: CAβBP peptide (catalase residues 400-409) (human, UniProt P04040 400-409)
T1 construct: range 400-409; 20 covers only catalase 402-414; also called CAIIBP; CARBP
T1 peptide (looked up): GAPNYYPNSF

B1: Aβ 25-35 (peptide)
peptide: GSNKGAIIGLM
modifications: also: biotinylated in some assays, site not given here
notes: Used both biotinylated and unlabelled; also called biotinylated Aβ 25-35
B2: EAβBP peptide (ERAB residues 99-108) (peptide, UniProt Q99714 99-108, looked up)
peptide: KTYNLKKGQT
notes: range 99-108; 21 covers only ERAB 101-109; also called EAβBD

Legend:
[1] = biological target: T2, recombinant human cyclin B1 (human, UniProt P14635 1-433, limits assumed); assay: ELISA, cyclin B1-coated plate
T2 construct: Coated on ELISA plates
T2 sequence (P14635 whole entry): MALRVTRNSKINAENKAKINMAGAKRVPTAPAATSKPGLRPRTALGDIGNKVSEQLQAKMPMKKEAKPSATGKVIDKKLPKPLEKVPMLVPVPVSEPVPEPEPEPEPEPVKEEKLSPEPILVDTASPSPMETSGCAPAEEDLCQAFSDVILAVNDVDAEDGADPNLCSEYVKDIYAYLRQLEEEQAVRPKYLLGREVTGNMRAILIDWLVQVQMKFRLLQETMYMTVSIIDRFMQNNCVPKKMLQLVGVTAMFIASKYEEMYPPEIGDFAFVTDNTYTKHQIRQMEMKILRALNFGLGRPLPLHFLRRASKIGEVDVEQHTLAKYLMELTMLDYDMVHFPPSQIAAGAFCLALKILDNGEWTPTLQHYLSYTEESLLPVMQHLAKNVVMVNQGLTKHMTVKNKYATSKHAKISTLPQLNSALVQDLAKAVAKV
Protocol: (§1) ELISA plates were coated with recombinant human cdc2 or the cdc2 119-133 peptide fragment (CDKP1) (1 μg ml⁻¹) in carbonate buffer and unoccupied sites blocked with 5% (w/v) dried milk. […] After washing to remove unbound material, an alkaline phosphatase polymer-streptavidin conjugate (Sigma, Dorset, UK) was added and incubated at 37° C. for 2 hours. After washing to remove unbound material p-nitrophenylphosphate substrate was added and absorbance at 405 nm determined.
Cyclins are co-factors for cdc2 which are required for enzyme activity. These proteins also contain substrate recognition sequences which may play a role in the recruitment of substrate molecules to the active cdc2/cyclin complex. The recombinant cdc2/cyclin enzyme complex used in the above phosphorylation experiments contained cyclin B1. […] Binding assays as described above using cyclin B1 coated plates were carried out.

recombinant human cdc2 = biological target: T3, recombinant human cdc2 (human, UniProt P06493 1-297, limits assumed); assay: ELISA, cdc2-coated plate, biotinylated peptide 200 pM
T3 construct: Coated on ELISA plates at 1 µg/ml; also called p34-cdc2
T3 sequence (P06493 whole entry): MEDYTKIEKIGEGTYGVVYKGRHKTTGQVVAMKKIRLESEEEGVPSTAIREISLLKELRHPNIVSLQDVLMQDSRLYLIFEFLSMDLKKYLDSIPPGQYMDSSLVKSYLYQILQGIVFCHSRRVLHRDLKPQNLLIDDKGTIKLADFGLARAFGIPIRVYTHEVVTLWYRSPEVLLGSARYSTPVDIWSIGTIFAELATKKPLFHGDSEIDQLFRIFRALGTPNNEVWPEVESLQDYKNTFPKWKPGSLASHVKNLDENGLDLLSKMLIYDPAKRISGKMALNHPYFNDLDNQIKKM
Protocol: as §1

[2] = biological target: B2; assay: ELISA, EAβBP-coated plate
Protocol: (§2) After washing to remove unbound material, an alkaline phosphatase polymer-streptavidin conjugate (Sigma, Dorset, UK) was added and incubated at 37° C. for 2 hours. After washing to remove unbound material, p-nitrophenylphosphate substrate was added and absorbance at 405 nm determined.

[3] = biological target: T1, CAβBP peptide (catalase residues …); assay: ELISA, CAβBP-coated plate
Protocol: as §2

Aβ 1-42 = biological target: T4, Aβ 1-42 (biotinylated (LinKit-Biolink kit, site not stated) where used as the labelled tracer; unlabelled where used as competitor or in activity assays); assay: competition ELISA, EAβBP-coated plate, Scatchard analysis
T4 construct: catalase and cytotoxicity assays; also called biotinylated Aβ 1-42; Amyloid-β 1-42
Protocol: as §2

## B1
[1]
  binding result: binds
Recombinant human cdc2
  binding result: binds
[2]
  binding result: no binding (tested: 200 pM biotinylated peptide)

## VHHQKLVFFAEDVGSNK (also: biotinylated, site not given here, also called biotinylated Aβ 12-28) [Aβ 12-28]
[3]
  binding result: no binding (tested: 200 pM biotinylated peptide)

## B2
Aβ 1-42
  Kd: 107 nM
